Test results published in patent US20180155451A1 (published 2018).

Key:
[1] = molecular target: T1, FcγRIIa R (FcγRIIa, allotype R: Arg at position 131) extracellular domain with C-terminal His tag (human, UniProt P12318 34-217); experiment: SPR Biacore, antibody captured, FcgR analyte; vs HeCon Ab GpH7-A5/GpH7-B3/GpL16-k0 = 100
T1 construct: extracellular domain; also called FcgRIIa R; 2aR; not shown: His tag at the C terminus
T1 sequence (looked up): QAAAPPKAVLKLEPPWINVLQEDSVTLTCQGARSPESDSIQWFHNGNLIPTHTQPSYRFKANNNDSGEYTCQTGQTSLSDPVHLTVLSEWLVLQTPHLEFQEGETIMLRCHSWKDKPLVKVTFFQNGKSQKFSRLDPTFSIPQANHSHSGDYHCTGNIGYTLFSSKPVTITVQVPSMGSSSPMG
Description: (§1) The heterodimerized antibodies He Abs in which one of the H chains was introduced with an alteration were assayed for their binding activities to each activating FcγR and inhibitory FcγR according to the method described in Example 4. […] The activating FcγRs in FIGS. 26, 27, 28, and 29 are FcγRIa, FcγRIIa (R), FcγRIIa (H), and FcγRIIIa, respectively.
(§2) Analysis of interaction between objective antibody and the FcγR was carried out using Biacore T100 (GE Healthcare). HBS-EP+ (GE Healthcare) was used as the running buffer, and the measurement temperature was set to 25° C. Chips produced by immobilizing the antigen peptide by the amine coupling method to a Series S Sencor Chip CM5 (GE Healthcare), or alternatively, chips produced by allowing preliminarily biotinylated antigen peptides to interact with and immobilize onto a Series S Sensor Chip SA (certified) (GE Healthcare) were used. Antibodies of interest were captured onto an antigen peptide-immobilized chip, and allowed to interact to each FcγR diluted with running buffer. To regenerate and repeatedly use the chip, the antibodies captured on the chip were washed off by reacting 10 mM glycine-HCl, pH 1.5.

[2] = molecular target: T2, FcγRIIb extracellular domain with C-terminal His tag (human, UniProt P31994 43-217); experiment: as above
T2 construct: extracellular domain; also called FcgRIIb; 2b; not shown: His tag at the C terminus
T2 sequence (looked up): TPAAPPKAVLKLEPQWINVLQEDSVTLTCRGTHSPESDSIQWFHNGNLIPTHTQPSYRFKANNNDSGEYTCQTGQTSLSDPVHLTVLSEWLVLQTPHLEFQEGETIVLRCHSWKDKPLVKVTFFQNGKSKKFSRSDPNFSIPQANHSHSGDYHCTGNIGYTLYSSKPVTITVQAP
Description: as §1, §2

B1: GpH7-A5/GpH7-B3 variant A330_12R/GpL16-k0 (antibody, human IgG1, kappa)
heavy 1: not shown
heavy 2: not shown
light: DIVMTQSPLSLPVTPGEPASISCQASESLVHSNRNTYLHWYLQKPGQSPQLLIYKVSNRFSGVPDRFSGSGSGTDFTLKISRVEAEDVGVYYCSQNTHVPPTFGQGTKVEIERTVAAPSVFIFPPSDEQLKSGTASVVCLLNNFYPREAKVQWKVDNALQSGNSQESVTEQDSKDSTYSLSSTLTLSKADYEKHKVYACEVTHQGLSSPVTKSFNRGEC
notes: He Ab: alteration in the GpH7-B3 H chain only; also called He Ab
He/Con_2aR [1]: 104 control = 100
He/Con_2b [2]: 84.8 control = 100

B2: GpH7-A5/GpH7-B3 variant N325_15Y/GpL16-k0 (antibody, human IgG1, kappa)
heavy 1: not shown
heavy 2: not shown
light: DIVMTQSPLSLPVTPGEPASISCQASESLVHSNRNTYLHWYLQKPGQSPQLLIYKVSNRFSGVPDRFSGSGSGTDFTLKISRVEAEDVGVYYCSQNTHVPPTFGQGTKVEIERTVAAPSVFIFPPSDEQLKSGTASVVCLLNNFYPREAKVQWKVDNALQSGNSQESVTEQDSKDSTYSLSSTLTLSKADYEKHKVYACEVTHQGLSSPVTKSFNRGEC
notes: as for B1
He/Con_2aR [1]: 101 control = 100
He/Con_2b [2]: 99.5 control = 100

B3: GpH7-A5/GpH7-B3 variant H268_11K/GpL16-k0 (antibody, human IgG1, kappa)
heavy 1: not shown
heavy 2: not shown
light: DIVMTQSPLSLPVTPGEPASISCQASESLVHSNRNTYLHWYLQKPGQSPQLLIYKVSNRFSGVPDRFSGSGSGTDFTLKISRVEAEDVGVYYCSQNTHVPPTFGQGTKVEIERTVAAPSVFIFPPSDEQLKSGTASVVCLLNNFYPREAKVQWKVDNALQSGNSQESVTEQDSKDSTYSLSSTLTLSKADYEKHKVYACEVTHQGLSSPVTKSFNRGEC
notes: as for B1
He/Con_2aR [1]: 100 control = 100
He/Con_2b [2]: 83 control = 100

B4: GpH7-A5/GpH7-B3 variant H268_12R/GpL16-k0 (antibody, human IgG1, kappa)
heavy 1: not shown
heavy 2: not shown
light: DIVMTQSPLSLPVTPGEPASISCQASESLVHSNRNTYLHWYLQKPGQSPQLLIYKVSNRFSGVPDRFSGSGSGTDFTLKISRVEAEDVGVYYCSQNTHVPPTFGQGTKVEIERTVAAPSVFIFPPSDEQLKSGTASVVCLLNNFYPREAKVQWKVDNALQSGNSQESVTEQDSKDSTYSLSSTLTLSKADYEKHKVYACEVTHQGLSSPVTKSFNRGEC
notes: as for B1
He/Con_2aR [1]: 105 control = 100
He/Con_2b [2]: 89.8 control = 100

B5: GpH7-A5/GpH7-B3 variant N325_10E/GpL16-k0 (antibody, human IgG1, kappa)
heavy 1: not shown
heavy 2: not shown
light: DIVMTQSPLSLPVTPGEPASISCQASESLVHSNRNTYLHWYLQKPGQSPQLLIYKVSNRFSGVPDRFSGSGSGTDFTLKISRVEAEDVGVYYCSQNTHVPPTFGQGTKVEIERTVAAPSVFIFPPSDEQLKSGTASVVCLLNNFYPREAKVQWKVDNALQSGNSQESVTEQDSKDSTYSLSSTLTLSKADYEKHKVYACEVTHQGLSSPVTKSFNRGEC
notes: as for B1
He/Con_2aR [1]: 105 control = 100
He/Con_2b [2]: 95.9 control = 100

B6: GpH7-A5/GpH7-B3 variant K326_12R/GpL16-k0 (antibody, human IgG1, kappa)
heavy 1: not shown
heavy 2: not shown
light: DIVMTQSPLSLPVTPGEPASISCQASESLVHSNRNTYLHWYLQKPGQSPQLLIYKVSNRFSGVPDRFSGSGSGTDFTLKISRVEAEDVGVYYCSQNTHVPPTFGQGTKVEIERTVAAPSVFIFPPSDEQLKSGTASVVCLLNNFYPREAKVQWKVDNALQSGNSQESVTEQDSKDSTYSLSSTLTLSKADYEKHKVYACEVTHQGLSSPVTKSFNRGEC
notes: as for B1
He/Con_2aR [1]: 103 control = 100
He/Con_2b [2]: 89.2 control = 100

B7: GpH7-A5/GpH7-B3 variant E333_05P/GpL16-k0 (antibody, human IgG1, kappa)
heavy 1: not shown
heavy 2: not shown
light: DIVMTQSPLSLPVTPGEPASISCQASESLVHSNRNTYLHWYLQKPGQSPQLLIYKVSNRFSGVPDRFSGSGSGTDFTLKISRVEAEDVGVYYCSQNTHVPPTFGQGTKVEIERTVAAPSVFIFPPSDEQLKSGTASVVCLLNNFYPREAKVQWKVDNALQSGNSQESVTEQDSKDSTYSLSSTLTLSKADYEKHKVYACEVTHQGLSSPVTKSFNRGEC
notes: as for B1
He/Con_2aR [1]: 105 control = 100
He/Con_2b [2]: 97.7 control = 100

B8: GpH7-A5/GpH7-B3 variant P331_09D/GpL16-k0 (antibody, human IgG1, kappa)
heavy 1: not shown
heavy 2: not shown
light: DIVMTQSPLSLPVTPGEPASISCQASESLVHSNRNTYLHWYLQKPGQSPQLLIYKVSNRFSGVPDRFSGSGSGTDFTLKISRVEAEDVGVYYCSQNTHVPPTFGQGTKVEIERTVAAPSVFIFPPSDEQLKSGTASVVCLLNNFYPREAKVQWKVDNALQSGNSQESVTEQDSKDSTYSLSSTLTLSKADYEKHKVYACEVTHQGLSSPVTKSFNRGEC
notes: as for B1
He/Con_2aR [1]: 102 control = 100
He/Con_2b [2]: 94.3 control = 100

B9: GpH7-A5/GpH7-B3 variant E333_04F/GpL16-k0 (antibody, human IgG1, kappa)
heavy 1: not shown
heavy 2: not shown
light: DIVMTQSPLSLPVTPGEPASISCQASESLVHSNRNTYLHWYLQKPGQSPQLLIYKVSNRFSGVPDRFSGSGSGTDFTLKISRVEAEDVGVYYCSQNTHVPPTFGQGTKVEIERTVAAPSVFIFPPSDEQLKSGTASVVCLLNNFYPREAKVQWKVDNALQSGNSQESVTEQDSKDSTYSLSSTLTLSKADYEKHKVYACEVTHQGLSSPVTKSFNRGEC
notes: as for B1
He/Con_2aR [1]: 102 control = 100
He/Con_2b [2]: 94.6 control = 100

B10: GpH7-A5/GpH7-B3 variant N325_14T/GpL16-k0 (antibody, human IgG1, kappa)
heavy 1: not shown
heavy 2: not shown
light: DIVMTQSPLSLPVTPGEPASISCQASESLVHSNRNTYLHWYLQKPGQSPQLLIYKVSNRFSGVPDRFSGSGSGTDFTLKISRVEAEDVGVYYCSQNTHVPPTFGQGTKVEIERTVAAPSVFIFPPSDEQLKSGTASVVCLLNNFYPREAKVQWKVDNALQSGNSQESVTEQDSKDSTYSLSSTLTLSKADYEKHKVYACEVTHQGLSSPVTKSFNRGEC
notes: as for B1
He/Con_2aR [1]: 105 control = 100
He/Con_2b [2]: 91.6 control = 100

B11: GpH7-A5/GpH7-B3 variant A330_19Q/GpL16-k0 (antibody, human IgG1, kappa)
heavy 1: not shown
heavy 2: not shown
light: DIVMTQSPLSLPVTPGEPASISCQASESLVHSNRNTYLHWYLQKPGQSPQLLIYKVSNRFSGVPDRFSGSGSGTDFTLKISRVEAEDVGVYYCSQNTHVPPTFGQGTKVEIERTVAAPSVFIFPPSDEQLKSGTASVVCLLNNFYPREAKVQWKVDNALQSGNSQESVTEQDSKDSTYSLSSTLTLSKADYEKHKVYACEVTHQGLSSPVTKSFNRGEC
notes: as for B1
He/Con_2aR [1]: 104 control = 100
He/Con_2b [2]: 90.8 control = 100

B12: GpH7-A5/GpH7-B3 variant P331_08L/GpL16-k0 (antibody, human IgG1, kappa)
heavy 1: not shown
heavy 2: not shown
light: DIVMTQSPLSLPVTPGEPASISCQASESLVHSNRNTYLHWYLQKPGQSPQLLIYKVSNRFSGVPDRFSGSGSGTDFTLKISRVEAEDVGVYYCSQNTHVPPTFGQGTKVEIERTVAAPSVFIFPPSDEQLKSGTASVVCLLNNFYPREAKVQWKVDNALQSGNSQESVTEQDSKDSTYSLSSTLTLSKADYEKHKVYACEVTHQGLSSPVTKSFNRGEC
notes: as for B1
He/Con_2aR [1]: 102 control = 100
He/Con_2b [2]: 95.7 control = 100

B13: GpH7-A5/GpH7-B3 variant A330_15Y/GpL16-k0 (antibody, human IgG1, kappa)
heavy 1: not shown
heavy 2: not shown
light: DIVMTQSPLSLPVTPGEPASISCQASESLVHSNRNTYLHWYLQKPGQSPQLLIYKVSNRFSGVPDRFSGSGSGTDFTLKISRVEAEDVGVYYCSQNTHVPPTFGQGTKVEIERTVAAPSVFIFPPSDEQLKSGTASVVCLLNNFYPREAKVQWKVDNALQSGNSQESVTEQDSKDSTYSLSSTLTLSKADYEKHKVYACEVTHQGLSSPVTKSFNRGEC
notes: as for B1
He/Con_2aR [1]: 102 control = 100
He/Con_2b [2]: 95 control = 100

B14: GpH7-A5/GpH7-B3 variant P331_13S/GpL16-k0 (antibody, human IgG1, kappa)
heavy 1: not shown
heavy 2: not shown
light: DIVMTQSPLSLPVTPGEPASISCQASESLVHSNRNTYLHWYLQKPGQSPQLLIYKVSNRFSGVPDRFSGSGSGTDFTLKISRVEAEDVGVYYCSQNTHVPPTFGQGTKVEIERTVAAPSVFIFPPSDEQLKSGTASVVCLLNNFYPREAKVQWKVDNALQSGNSQESVTEQDSKDSTYSLSSTLTLSKADYEKHKVYACEVTHQGLSSPVTKSFNRGEC
notes: as for B1
He/Con_2aR [1]: 105 control = 100
He/Con_2b [2]: 96.8 control = 100

B15: GpH7-A5/GpH7-B3 variant P331_14T/GpL16-k0 (antibody, human IgG1, kappa)
heavy 1: not shown
heavy 2: not shown
light: DIVMTQSPLSLPVTPGEPASISCQASESLVHSNRNTYLHWYLQKPGQSPQLLIYKVSNRFSGVPDRFSGSGSGTDFTLKISRVEAEDVGVYYCSQNTHVPPTFGQGTKVEIERTVAAPSVFIFPPSDEQLKSGTASVVCLLNNFYPREAKVQWKVDNALQSGNSQESVTEQDSKDSTYSLSSTLTLSKADYEKHKVYACEVTHQGLSSPVTKSFNRGEC
notes: as for B1
He/Con_2aR [1]: 104 control = 100
He/Con_2b [2]: 99.8 control = 100

B16: GpH7-A5/GpH7-B3 variant P331_02A/GpL16-k0 (antibody, human IgG1, kappa)
heavy 1: not shown
heavy 2: not shown
light: DIVMTQSPLSLPVTPGEPASISCQASESLVHSNRNTYLHWYLQKPGQSPQLLIYKVSNRFSGVPDRFSGSGSGTDFTLKISRVEAEDVGVYYCSQNTHVPPTFGQGTKVEIERTVAAPSVFIFPPSDEQLKSGTASVVCLLNNFYPREAKVQWKVDNALQSGNSQESVTEQDSKDSTYSLSSTLTLSKADYEKHKVYACEVTHQGLSSPVTKSFNRGEC
notes: as for B1
He/Con_2aR [1]: 106 control = 100
He/Con_2b [2]: 99.5 control = 100

B17: GpH7-A5/GpH7-B3 variant L234_04F/GpL16-k0 (antibody, human IgG1, kappa)
heavy 1: not shown
heavy 2: not shown
light: DIVMTQSPLSLPVTPGEPASISCQASESLVHSNRNTYLHWYLQKPGQSPQLLIYKVSNRFSGVPDRFSGSGSGTDFTLKISRVEAEDVGVYYCSQNTHVPPTFGQGTKVEIERTVAAPSVFIFPPSDEQLKSGTASVVCLLNNFYPREAKVQWKVDNALQSGNSQESVTEQDSKDSTYSLSSTLTLSKADYEKHKVYACEVTHQGLSSPVTKSFNRGEC
notes: as for B1
He/Con_2aR [1]: 104 control = 100
He/Con_2b [2]: 99.8 control = 100
